Data taken from IntAct's records for PubMed 26030876.

B1: Autophagy-related protein 101 (Homo sapiens), Q9BSB4 (parent)
chain: MNCRSEVLEVSVEGRQVEEAMLAVLHTVLLHRSTGKFHYKKEGTYSIGTVGTQDVDCDFIDFTYVRVSSEELDRALRKVVGEFKDALRNSGGDGLGQMSLEFYQKKKSRWPFSDECIPWEVWTVKVHVVALATEQERQICREKVGEKLCEKIINIVEVMNRHEYLPKMPTQSEVDNVFDTGLRDVQPYLYKISFQITDALGTSVTTTMRRLIKDTLAL
partner: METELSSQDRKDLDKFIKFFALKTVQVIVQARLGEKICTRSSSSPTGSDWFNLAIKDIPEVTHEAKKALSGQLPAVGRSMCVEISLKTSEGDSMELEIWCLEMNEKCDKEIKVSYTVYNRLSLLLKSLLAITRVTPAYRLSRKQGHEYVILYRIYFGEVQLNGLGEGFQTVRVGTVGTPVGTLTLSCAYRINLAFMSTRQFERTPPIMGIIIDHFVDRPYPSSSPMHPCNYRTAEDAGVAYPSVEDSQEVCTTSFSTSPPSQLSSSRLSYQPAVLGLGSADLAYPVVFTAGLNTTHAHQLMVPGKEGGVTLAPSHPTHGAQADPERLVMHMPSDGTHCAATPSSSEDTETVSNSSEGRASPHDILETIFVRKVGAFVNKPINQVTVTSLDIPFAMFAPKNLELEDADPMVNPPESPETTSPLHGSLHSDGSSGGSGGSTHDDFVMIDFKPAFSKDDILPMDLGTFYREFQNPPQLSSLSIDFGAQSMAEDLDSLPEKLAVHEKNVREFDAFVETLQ

Variants of: B1
Details: with atg13_mouse Atg13, Q91YI1

effect of a mutation on the interaction	Variant
decreasing interaction strength	T63R
disrupting interaction strength	L30R;H31R
